Molecular target: human FcγRIIb (CD32B) (human) (UniProt P31994)
Assay: cell-based or functional assay

Chain of UniProt P31994 (P31994 43-310): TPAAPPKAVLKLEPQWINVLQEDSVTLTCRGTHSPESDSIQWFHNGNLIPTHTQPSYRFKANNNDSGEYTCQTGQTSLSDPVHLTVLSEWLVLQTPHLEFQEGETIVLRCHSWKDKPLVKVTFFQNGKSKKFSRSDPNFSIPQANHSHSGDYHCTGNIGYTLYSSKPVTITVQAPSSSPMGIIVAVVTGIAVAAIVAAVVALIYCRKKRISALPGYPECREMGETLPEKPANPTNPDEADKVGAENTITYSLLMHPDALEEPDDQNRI

surface accessible CD20 after 6 h culture (CLL cells): 40%
Substance: rituximab F(ab')2 fragment

Reference: patent US20230381310A1
